The source of these data is article PMC9170038, “Crowdsourced RNA design discovers diverse, reversible, efficient, self-contained molecular switches”.

Sequences and labels used below:
B1: Eterna 7733059 (Exclusion - Tryptophan B) (ssRNA)
RNA: GGAGUCGGCACGGCCGCCACUGCGGUGGUGUGACAUGAGGAUCACCCAUGUUGUCAUGCGGCCCUUAGGACCGGGUGGCGGUUCC
B2: Eterna 7666983 (Same State - Theophylline A) (ssRNA)
RNA: AAUAACAUGAGGAUCACCCAUGUAAAAGAUACCAGGGUGAUGAUCCUCCCUUGGCAGCUUACAGCUGAUCAAUAAGAUCGGCUGA
B3: Eterna 1200 (Exclusion - Tryptophan A) (ssRNA)
RNA: UGGAGUGCCUGGUCGUCACUAUGCCAACCACGAGGACCGGUACGGCCGCCACUCGUGAGGGAUAUUCAGAAAGUGAUGUUUUUUG
B4: Eterna 7755473 (Exclusion - Arginine A) (ssRNA)
RNA: UCCUUUGUUGCCAGUGAUGUUGGACAGGAAGGAGCGGGCAUAAGCCCAGGUAGGUCGCCUGUCAACUUUCUUAUAGCCCGAAGGU
B5: Eterna 7740407 (Exclusion - Tryptophan A) (ssRNA)
RNA: AAGCAGUCACUCGAAACCAUCGAAGAUGGACGAGGACCGGUACGGCCGCCACUCGGAGUGAUGUUCCGAAGACUGCAAAAUAAAA
B6: Eterna 6120996 (Same State NG 1) (ssRNA)
RNA: GGUCCAGCAUGAGGAUAUGGCACCUUAUUGGUGCCAGAAGGCAUGUCUAUAGACAUGAGGAUCACCCAUGUAAUAAAUUGGACC
B7: Eterna 7690517 (Same State - Theophylline B) (ssRNA)
RNA: AAUUUAUUAUCUGAUACCAGACUUUUUCUUGUUUAUAAGUCAAGUGAUGUUUGACUUUUAGUCCCUUGGCAGCAGUAUUUUUUAA
B8: Eterna 6444365 (Inverted Same State NG 3) (ssRNA)
RNA: AGAUUUGUACAUGAGGAUCACCCAUGUUAAUAGGUGGUUGUCAGAAGGCAUUAUUAGAGUUUUAAUGAGGAUAUGAAUUUACAA
B9: Eterna 5921244 (Exclusion NG 2) (ssRNA)
RNA: AUUAUAUAGGAAGGAUAUAGAAUAUUAUUUUAACAUGAGGAUCACCCAUGUAACCUUAUGUGUAGCUAGAAGGUCCAUUUGUUA
B10: Eterna 12785 (Exclusion 4) (ssRNA)
RNA: CUCGUGUGAGGAUAUCUAUUCCACGGACGGGAGUCUUGAAGAGAGAAGGCACAUGAGGAUCACCCAUGUAAUAA
B11: Eterna 7678744 (Same State - Tryptophan A) (ssRNA)
RNA: ACAGGAUCGAAAGAUCCUGAGCAGUCAAAACGAGGACCGGUACGGCCGCCACUCGAAUAAGAGAGUGAUGUUCUCGACUGCAAAA
B12: Eterna 6395988 (Inverted Same State NG 2) (ssRNA)
RNA: GUCUGAUUGUAGAAGGUACUUAAUACUCAUGUAACAUGAGGAUCACCCAUGUAUCAACAAUAUUGUAAGGAUAUACAAAUCUCA
B13: Eterna 7745661 (Exclusion - FMN B) (ssRNA)
RNA: AGACUACUGAUAGGAUAUAACAUCCUAGUCGUAUACCGAAAGGUAUACGAUUCCCUUCUAGUGAUGUUAGAAGGGUCGGUAGUCA
B14: Eterna 6036671 (Sensor, turn-off variant 1) (ssRNA)
RNA: GUCCUGGAUUAUCACAAGCACAUGAGGAUCACCCAUGUCAUGGGUGGAUCCCUAAAUGGGUAUUCUGCUCGUCUUAU
B15: Eterna 5956610 (Same State NG 2) (ssRNA)
RNA: UGGCUGAGUCGAGGAUAUGAUCUUCAUAUAAUAACAUGAGGAUCACCCAUGUAUAAUUACAUGGAUCAGAAGGCGACUCAGCCA
B16: Eterna 15995 (Sensor v3, turn-off variant 1) (ssRNA)
RNA: UAUUAGCAAGCAAGGUCCCACAUGAGGAUCACCCAUGUGCUCGUCUUAUAAGGUACUGUGACGAAAGUCACGGUACC
B17: Eterna 10232 (Sensor for hsa-mir-208a) (ssRNA)
RNA: AACCAACAAAUAAAACAAGCGUGCUCGUCACAUGAGGAUCACCCAUGUUUAAGCGCUAUUCCUACUUCCUCAGCGCC
B18: Eterna 10111 (Sensor for hsa-mir-208a version 2) (ssRNA)
RNA: AAUUAUUAACAUGAGGAUCACCCAUGUAAAACAUGGAUUAACAAGCCUUUUCGUUUUUGCUCGUCUUAUAUUAUUAA
B19: Eterna 7636321 (Exclusion - Theophylline B) (ssRNA)
RNA: CAUUAUGUAACUGAUACCAGUGUACUGACAUGAGGAUCACCCAUGUUGGGUUUUGUUGUACACCCUUGGCAGCAGAAUCAUAAUG
B20: Eterna 7629678 (Same State - Theophylline A) (ssRNA)
RNA: UUCUACAUGAGGAUCACCCAUGUAAACGAUACCAGACGAGUAUUAGUCCCUUGGCAGCGUAGAGUGUCGUUUAUAGUAGGAUACC
B21: Eterna 7687214 (Same State - Theophylline B) (ssRNA)
RNA: UCGUGUAUAUCGGAUACCAGUGAAAACGAUACAUGAGGAUCACCCAUGUGAGUUGAUGUACACCCUUGGCAGCUGUAUAUAUCUA
B22: Eterna 7639661 (Exclusion - Theophylline B) (ssRNA)
RNA: AUUUAUAGUUGUGAUACCAGACUUACAUGAGGAUCACCCAUGUUACUUAAAUGUUUUGAUGUCCCUUGGCAGCACUGUUUUUUUA
B23: Eterna 7618834 (Exclusion - Theophylline A) (ssRNA)
RNA: AGACAUGAGGAUCACCCAUGUAGUAUGGAUACCAGAUCCAGAUUUAUCCCUUGGCAGCUGUGGUACAGCGUUGGAUCGCUCCUAG
B24: Eterna 5997882 (Exclusion 5) (ssRNA)
RNA: CAGCCCUGAGGAUAUCCCUACUUGUACAUGAGGAUCACCCAUGUCCUCCUCCGGGCUUCGGGAGAAGGCAGGUCUC

In one series the target is T1, MS2 coat protein, dlFG mutant (Escherichia phage MS2, UniProt P03612, del68-81insG). Nature of the series: 4 mM Mg2+; L-tryptophan 2.4 mM; RNA-MaP array; 100 mM Tris-HCl pH 7.5, 80 mM KCl, 4 mM MgCl2, 0.1 mg/mL BSA, 1 mM DTT, 0.01 mg/mL yeast tRNA, 0.01% Tween-20; protein 1.5 nM to 3 uM; 37 C (Table S3). The conditions noted are these: chain copies: 2; label: tethered by stalled RNA polymerase.
In general, Kd refers to the constant that tells how readily two partners part at equilibrium. Molecule B1 returned a Kd of 57 nM.

The target of another series is T1, MS2 coat protein, dlFG mutant. Nature of the series: 4 mM Mg2+; no ligand; RNA-MaP array; 100 mM Tris-HCl pH 7.5, 80 mM KCl, 4 mM MgCl2, 0.1 mg/mL BSA, 1 mM DTT, 0.01 mg/mL yeast tRNA, 0.01% Tween-20; protein 1.5 nM to 3 uM; 37 C (Table S3). Particulars: chain copies: 2; label: tethered by stalled RNA polymerase.
Regarding B2, the Kd is 192 nM.
As for B3, the Kd was over 3000 nM.
In the case of B4, the Kd was over 3000 nM.
On the same count and under the same terms, under B5 stands over 3000 nM; under UUUAAUGAGGGAACUGCUUAGUUU (ssRNA) [Eterna 5 (OligoOldBControl)], over 3000 nM.
On the same count and under the same terms, under B6 stands 646 nM; under B7, over 3000 nM.
Same read-out and setting: under UUUGUUGCCAGUGAUGUUGGCAACUUU (ssRNA) [Eterna 11 (K4-alt7bp_control)] stands over 3000 nM; under B8, 974 nM.
Molecule B9 yielded a Kd of 224 nM.
Still for that read-out and setting: then B10, with 166 nM; and B11, with over 3000 nM.
Same read-out and setting: under B12 stands 576 nM; under B13, over 3000 nM.
Same read-out and setting: under B14 stands 481 nM; under B15, 662 nM.

The next series has the same target. Nature of the series: 4 mM Mg2+; miR-208a RNA 100 nM (AU…UUGU); RNA-MaP array; 100 mM Tris-HCl pH 7.5, 80 mM KCl, 4 mM MgCl2, 0.1 mg/mL BSA, 1 mM DTT, 0.01 mg/mL yeast tRNA, 0.01% Tween-20; protein 1.5 nM to 3 uM; 37 C (Table S3). The conditions noted are these: chain copies: 2; label: tethered by stalled RNA polymerase.
B16: the Kd came to 426 nM.
As for B17, the affinity, expressed as Kd, was 30.4 nM.
The same measure, in the same setting: then B18, with 135 nM.

The next series has the same target. Nature of the series: 4 mM Mg2+; theophylline 2 mM; RNA-MaP array; 100 mM Tris-HCl pH 7.5, 80 mM KCl, 4 mM MgCl2, 0.1 mg/mL BSA, 1 mM DTT, 0.01 mg/mL yeast tRNA, 0.01% Tween-20; protein 1.5 nM to 3 uM; 37 C (Table S3). Particulars: chain copies: 2; label: tethered by stalled RNA polymerase.
Turning to B19, the Kd worked out at 90.9 nM.
On the same count and under the same terms, under B20 stands 28.4 nM; under B21, 15.1 nM.
Still for that read-out and setting: under B22 stands 14 nM; under B23, 29.4 nM.

For another series the target is unchanged. Description: 4 mM Mg2+; FMN 200 uM; RNA-MaP array; 100 mM Tris-HCl pH 7.5, 80 mM KCl, 4 mM MgCl2, 0.1 mg/mL BSA, 1 mM DTT, 0.01 mg/mL yeast tRNA, 0.01% Tween-20; protein 1.5 nM to 3 uM; 37 C (Table S3). The conditions noted are these: chain copies: 2; label: tethered by stalled RNA polymerase.
Regarding B24, the affinity, expressed as Kd, was 18.5 nM.
